The record followed here is patent US9260517B2, “Human monoclonal antibodies to human nucleolin” (MUSC Foundation for Research Development, priority 2009, dated 2016).

Experiment [1] deals with T1, cell surface nucleolin on MV4-11 AML cells (Homo sapiens, UniProt P19338).
T1 construct: endogenous in cells; host or cells: MV4-11 cells
Kind of experiment: Flow cytometry (FACS) binding to MV4-11 cells. To be noted: 5 μg/ml, 30 min on ice. The procedure: (§1) FIG. 12. Binding of HuMAbs to cell surface nucleolin and cytotoxicity to MV4-11 leukemia cells. (FIG. 12A) Anti-nucleolin HuMabs or Rituxan^R (5 μg/ml) were incubated with MV4-11 or normal tonsil cells for 30 min on ice, washed, then incubated with APC-labeled anti-human IgG (Miltenyi). Flow cytometry was performed on a FACSCaliber, and median fluorescence intensity (MFI) is shown.
analysis was performed using a Becton Dickinson FACSCalibur instrument at the MUSC Flow Cytometry Facility, according to established methods. Infection efficiency of B cells infected with […] was assessed by measuring fluorescence of Green Fluorescent Protein 24 h post-infection. Antibodies used to characterize human B cells were obtained from BD Biosciences and are specific for human CD20, CD19, CD23, CD27, CD30, CD38, IgD, IgM, and IgG.
A general note: A flow cytometer gives signals particle by particle.

Another experiment relates to normal tonsil cells. Kind of experiment: Flow cytometry binding to normal tonsil cells. As to conditions: 5 μg/ml, 30 min on ice. Set-up: species or system human. The procedure:
as §1

T1 sequence (P19338 whole entry): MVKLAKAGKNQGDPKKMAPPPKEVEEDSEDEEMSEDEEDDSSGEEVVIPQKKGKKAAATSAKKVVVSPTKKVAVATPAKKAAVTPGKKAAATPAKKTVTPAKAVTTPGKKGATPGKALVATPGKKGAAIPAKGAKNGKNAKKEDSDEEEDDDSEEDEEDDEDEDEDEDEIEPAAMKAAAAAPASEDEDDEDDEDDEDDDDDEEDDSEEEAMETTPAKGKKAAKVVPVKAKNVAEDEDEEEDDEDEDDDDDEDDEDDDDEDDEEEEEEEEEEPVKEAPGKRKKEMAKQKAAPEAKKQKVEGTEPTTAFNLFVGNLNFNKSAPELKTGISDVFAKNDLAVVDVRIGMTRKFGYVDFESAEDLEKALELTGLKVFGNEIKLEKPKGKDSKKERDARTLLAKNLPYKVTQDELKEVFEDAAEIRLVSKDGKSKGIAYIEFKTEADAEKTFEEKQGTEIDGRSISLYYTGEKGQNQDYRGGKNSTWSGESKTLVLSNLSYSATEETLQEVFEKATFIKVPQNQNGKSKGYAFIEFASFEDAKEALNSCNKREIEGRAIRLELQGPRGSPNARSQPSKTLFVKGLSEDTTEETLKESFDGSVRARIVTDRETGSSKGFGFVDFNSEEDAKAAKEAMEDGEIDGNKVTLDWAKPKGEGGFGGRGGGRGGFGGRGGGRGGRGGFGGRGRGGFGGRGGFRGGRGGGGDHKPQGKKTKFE

With rituximab, the “binding to MV4-11 cells by flow cytometry” value in experiment [1] is “not to MV4-11 cells”. Besides, in the experiment on normal tonsil cells, the “binding to normal tonsil cells by flow cytometry” value is “bound to normal tonsil cells”.
